In US8298782B2, “Reversible MHC multimer staining for functional purification of antigen-specific T cells” (priority 2000, dated 2012):

System: LLO91-99-specific T cells
Assay: epitope-tag (HSV) staining for surface-bound MHC / dissociation experiments by flow cytometry
Type: cell-based
Description: FIG. 5: Development of a reversible MHC multimer staining technology. (a) LLO91-99-specific T cells were stained for 30 min with monomeric or tetrameric (“tet”) LLO91-99/H2-K^d/β2m-HSV-tag or p60217-225/H2-K^d/β2m-HSV-tag reagents. Cells were fixed without washing (upper histogram) or after 2 washing steps (lower histogram) with 1% paraformaldehyde and subsequently stained for remaining HSV-epitope-tag on the cell surface (x-axis). (b+c) LLO91-99-specific T cells were stained for 45 min with LLO91-99/H2-K^dStrep-tag® II peptide/β2-HSV-tag:Strep:Tactin® polypeptide polymers (IBA GmbH) (“poly”), briefly washed to remove unbound reagents, and incubated in the presence (b) or absence (c) of 1 mM d-biotin; all steps were performed at 4° C. Cell aliquots were harvested after different time intervals (indicated above histograms), fixed with 1% paraformaldehyde, and stained for remaining HSV-epitope-tag on the cell surface (x-axis).
FIG. 6: Improvement of MHC-Strep-tag® II peptide/Strep-Tactin® polypeptide (IBA GmbH) multimer reagents. […]
FIG. 7: Reversible MHC multimer staining and T cell function. […] (a) Staining for recombinant MHC-molecules (detected by epitope-tag staining, x-axis) on differently treated T cells. […] Numbers of viable bacteria (y-axis) were determined 48 h following Lysteria infection. […]

B1: monomeric MHC/epitope molecules: monomeric LLO91-99/H2-K^d/β2m-HSV-tag reagent (protein)
MHC heavy: GPHSLRYFVTAVSRPGLGEPRFIAVGYVDDTQFVRFDSDADNPRFEPRAPWMEQEGPEYWEEQTQRAKSDEQWFRVSLRTAQRYYNQSKGGSHTFQRMFGCDVGSDWRLLRGYQQFAYDGRDYIALNEDLKTWTAADTAALITRRKWEQAGDAEYYRAYLEGECVEWLRRYLELGNETLLRTDSPKAHVTYHPRSQVDVTLRCWALGFYPADITLTWQLNGEDLTQDMELVETRPAGDGTFQKWAAVVVPLGKEQNYTCHVHHKGLPEPLTLRWKLPPSTVSNT
b2m: IQKTPQIQVYSRHPPENGKPNILNCYVTQFHPPHIEIQMLKNGKKIPKVEMSDMSFSKDWSFYILAHTEFTPTETDTYACRVKHASMAEPKTVYWDRDM
peptide: GYKDGNEYI
modifications: left off: a dimerising Fc or GST; small tags and cut ends
notes: monomeric LLO91-99/H2-K^d/β2m-HSV-tag reagent
MHC monomers on the cell surface (after brief washing, 4° C.): all reagent-derived MHC monomers disappear from the cell surface | interaction of MHC monomers with T cell surface (fixed immediately with paraformaldehyde, no washing): some detectable interaction
